The target of one data set is PDGFRβ (recombinant) (UniProt P09619 33-532). As to the kind of experiment: SPR. For orientation: In SPR one partner is held on a chip, and binding of the other changes the refractive index at the surface.
For data set [1], the target named is PDGFRα extracellular domain (Homo sapiens, UniProt P16234 24-524). In words: SPR.

One molecule from article PMC6307106 can be followed below.

Chain of PDGFRβ (recombinant) (P09619 33-532): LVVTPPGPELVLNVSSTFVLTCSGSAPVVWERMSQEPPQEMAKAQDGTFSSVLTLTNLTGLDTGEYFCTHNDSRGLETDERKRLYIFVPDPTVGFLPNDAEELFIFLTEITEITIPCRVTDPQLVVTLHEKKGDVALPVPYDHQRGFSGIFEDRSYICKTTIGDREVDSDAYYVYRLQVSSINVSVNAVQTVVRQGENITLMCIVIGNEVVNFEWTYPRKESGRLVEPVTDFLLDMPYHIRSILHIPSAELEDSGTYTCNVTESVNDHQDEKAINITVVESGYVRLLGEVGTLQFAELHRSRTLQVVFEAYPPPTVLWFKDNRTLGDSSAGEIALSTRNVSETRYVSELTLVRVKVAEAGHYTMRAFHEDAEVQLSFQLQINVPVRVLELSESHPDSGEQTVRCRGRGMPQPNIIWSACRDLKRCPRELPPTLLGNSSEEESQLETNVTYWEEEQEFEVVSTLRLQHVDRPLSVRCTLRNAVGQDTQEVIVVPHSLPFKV
Chain of PDGFRα extracellular domain (P16234 24-524): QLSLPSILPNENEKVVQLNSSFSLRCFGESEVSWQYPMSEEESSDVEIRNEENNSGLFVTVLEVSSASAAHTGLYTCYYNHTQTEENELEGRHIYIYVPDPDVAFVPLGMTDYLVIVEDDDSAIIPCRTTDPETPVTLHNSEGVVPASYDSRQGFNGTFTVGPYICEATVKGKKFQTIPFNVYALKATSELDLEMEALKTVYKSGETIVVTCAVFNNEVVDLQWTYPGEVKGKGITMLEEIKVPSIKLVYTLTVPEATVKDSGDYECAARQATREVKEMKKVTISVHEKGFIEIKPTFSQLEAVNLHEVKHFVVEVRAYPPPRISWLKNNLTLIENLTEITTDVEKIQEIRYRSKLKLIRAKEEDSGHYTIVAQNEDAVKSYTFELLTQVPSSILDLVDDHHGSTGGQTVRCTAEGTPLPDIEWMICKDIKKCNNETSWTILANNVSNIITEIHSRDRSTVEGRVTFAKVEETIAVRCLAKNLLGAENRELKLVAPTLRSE

B1: PDR3 (structured_RNA)
RNA: GGGAGAGCGGAAGCGUGCUGGGCCUGCUCUUUAAUAAACCCACUUUCGAACAUCAGCGUAUGUCCAUAACCCAGAGGUGAUGGAUCCCCC
modifications: 2'-F pyrimidines (2'F-U, 2'F-C)
Take B1: the binding result with PDGFRβ (recombinant) is “no binding”. Moreover, the dissociation constant Kd (usually a measure of binding affinity in units of concentration) in data set [1] amounted to 0.25 nM.
